Biological target: FcRn/β2 microglobulin (UniProt P55899)
Assay: SPR

Sequence of FcRn/β2 microglobulin (P55899 24-365, chain 1 of 2): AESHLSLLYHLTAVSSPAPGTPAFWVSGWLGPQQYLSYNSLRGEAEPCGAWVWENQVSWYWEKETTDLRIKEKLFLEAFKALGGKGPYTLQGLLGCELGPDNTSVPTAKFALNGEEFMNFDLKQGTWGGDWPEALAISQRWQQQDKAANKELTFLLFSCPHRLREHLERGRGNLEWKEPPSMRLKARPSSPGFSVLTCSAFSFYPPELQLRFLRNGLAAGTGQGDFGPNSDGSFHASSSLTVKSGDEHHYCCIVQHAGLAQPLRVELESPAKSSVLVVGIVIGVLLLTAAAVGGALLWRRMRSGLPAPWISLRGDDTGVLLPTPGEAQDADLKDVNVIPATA
Sequence of FcRn/β2 microglobulin (P61769 21-119, chain 2 of 2, further chain): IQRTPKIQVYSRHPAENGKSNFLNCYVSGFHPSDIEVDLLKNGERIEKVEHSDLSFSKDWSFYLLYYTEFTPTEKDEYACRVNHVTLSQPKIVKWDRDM

Substance	Kd [µM]
Guselkumab (antibody)	5
Risankizumab (antibody)	5
Tildrakizumab (antibody)	5
Ustekinumab (antibody)	5
